# Results published in patent US20210355225A1 (OSE IMMUNOTHERAPEUTICS, published 2021).
# Positions count from the first letter of the chain named. Read-outs that look alike come from different tables or passages of the source.
# B1: HCLD (antibody, human IgG4 S228P, kappa, V domains shown)
# VH: QIQLVQSGSELKKPGASVKVSCKASGYTFTHYAMNWVRQAPGQGLEWMGWINTNTGEPTYAQGFTGRFVFSLDTSVSTAYLQISSLKAEDTAVYYCAREREPGMDSWGQGTLVTVSS
# VL: DVVMTQSPLSLPVTLGQPASISCRSSQSLVHANTNTYLEWYQQRPGQSPRLLIYKVSNRFSGVPDRFSGSGSGTDFTLKISRVEAEDVGVYYCFQGTHVPNTFGQGTKLEIKR
# notes: also called humanized anti-PD1 variant HC heavy chain + LD light chain
# B2: HLLD (antibody, human IgG4 S228P, kappa, V domains shown)
# VH: B1 VH with S106E
# VL: B1 VL
# notes: also called humanized anti-PD1 variant HL heavy chain + LD light chain
# B3: HHLD (antibody, human IgG4 S228P, kappa, V domains shown)
# VH: B1 VH with S106H
# VL: B1 VL
# notes: also called humanized anti-PD1 variant HH heavy chain + LD light chain
# B4: HELC (antibody, human IgG4 S228P, kappa, V domains shown)
# VH: B1 VH with S106T
# VL: B1 VL with T34G
# notes: also called humanized anti-PD1 variant HE heavy chain + LC light chain
# B5: HGLD (antibody, human IgG4 S228P, kappa, V domains shown)
# VH: B1 VH with D105E
# VL: B1 VL
# notes: also called humanized anti-PD1 variant HG heavy chain + LD light chain
# B6: HELD (antibody, human IgG4 S228P, kappa, V domains shown)
# VH: B1 VH with S106T
# VL: B1 VL
# notes: also called humanized anti-PD1 variant HE heavy chain + LD light chain; HELD(V94)
# B7: HCLC (antibody, human IgG4 S228P, kappa, V domains shown)
# VH: B1 VH
# VL: B1 VL with T34G
# notes: also called humanized anti-PD1 variant HC heavy chain + LC light chain
# B8: HKLD (antibody, human IgG4 S228P, kappa, V domains shown)
# VH: B1 VH with S106N
# VL: B1 VL
# notes: also called humanized anti-PD1 variant HK heavy chain + LD light chain; humanized anti PD-1 (HKLD variant)
# B9: HJLD (antibody, human IgG4 S228P, kappa, V domains shown)
# VH: B1 VH with S106Y
# VL: B1 VL
# notes: also called humanized anti-PD1 variant HJ heavy chain + LD light chain
# B10: HILD (antibody, human IgG4 S228P, kappa, V domains shown)
# VH: B1 VH with S106A
# VL: B1 VL
# notes: also called humanized anti-PD1 variant HI heavy chain + LD light chain
# How the values were obtained:
# [1] = target: T1, biotinylated Human PD1 (AcroBiosystems, reference EP-101) (human, UniProt Q15116 25-167, biotinylated); test: competition ELISA, immobilized hPDL1 as competitor, biotinylated PD1 0.66 µg/ml mixed with antibody
# T1 construct: also called Biotin-PD-1Fc; not shown: Fc part implied by the name 'Biotin-PD-1Fc'
# T1 sequence (Q15116 25-167): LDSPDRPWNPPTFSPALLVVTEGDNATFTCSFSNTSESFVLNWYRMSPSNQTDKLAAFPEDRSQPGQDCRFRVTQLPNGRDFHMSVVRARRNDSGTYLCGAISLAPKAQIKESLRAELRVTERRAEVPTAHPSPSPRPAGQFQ
# [2] = target: T2, human PD-1 expressed on the cell surface (human, UniProt Q15116 25-288); test: flow cytometry on CD3/CD28 stimulated human T cells (PD1+ CD3+); given as ED50
# T2 construct: whole, on cells; PD-1 on CD3/CD28 stimulated human T cells (flow cytometry), on Promega Jurkat effector cells and on human M1 macrophages (functional assays); also called PD1+ positive CD3+ T cell population; PD-1+ T cells
# T2 sequence (Q15116 25-288): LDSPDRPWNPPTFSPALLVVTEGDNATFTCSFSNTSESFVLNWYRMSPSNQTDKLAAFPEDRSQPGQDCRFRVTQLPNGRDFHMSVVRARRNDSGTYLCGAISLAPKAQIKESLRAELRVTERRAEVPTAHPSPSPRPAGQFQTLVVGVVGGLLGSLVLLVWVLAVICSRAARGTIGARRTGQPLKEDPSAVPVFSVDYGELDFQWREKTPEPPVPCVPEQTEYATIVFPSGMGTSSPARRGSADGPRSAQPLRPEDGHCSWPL
# Procedure: (§1) Detection was performed with a donkey anti-human antibody coupled to peroxidase and revelation was performed by colorimetry at 450 nm using TMB substrate. […] B: Assessment of antibody binding by cytofluorometry on CD3/CD28 stimulated human PBMCs. […] Data are represented by Mean Fluorescence Intensity (MFI) staining in PD1+ positive CD3+ T cell population. C: Assessment of antibody binding by cytofluorometry on CD3/CD28 stimulated T cells. […] Data are represented by Mean Fluorescence Intensity (MFI) staining in PD1+ positive CD3+ T cell population
# [3] = target: T2, human PD-1 expressed on the cell surface; test: cell-based or functional assay
# [4] = target: T3, Recombinant hPD1-His (Sino Biologicals, reference […]-H08H) (human, UniProt Q15116 25-167); test: ELISA, immobilized recombinant hPD1, purified antibody from HEK cells; given as ED50
# T3 construct: Bought reagent; also called human PD1 recombinant protein; PD-1 recombinant protein; not shown: histidine tail
# Procedure: as §1
# [5] = target: chimeric PD-1 receptor fused to Beta-gal fragment (ED) on Jurkat T cells (DiscoverX PathHunter Jurkat PD-1 … (UniProt Q15116 25-288)); test: cell-based or functional assay
# Sequence of chimeric PD-1 receptor fused to Beta-gal fragment (ED) on Jurkat T cells (DiscoverX PathHunter Jurkat PD-1 … (Q15116 25-288, change not shown): as the sequence (Q15116 25-288) above
# [6] = target: T3, Recombinant hPD1-His (Sino Biologicals, …); test: Blitz (BLI), hPD1-His on Ni-NTA biosensor, antibody 20 µg/mL in solution (avidity)
# Procedure: The binding affinity/avidity was measured using Blitz method (Forté Bio; USA; reference C22-2 No 61010-1). […] Then, anti-PD1 antibodies were associated with 20 μg/mL for 120 seconds. The dissociation of anti-PD1 antibody was made in kinetics buffer for 120 seconds. Analysis data was made with the Blitz pro 1.2 software, which calculated association constant (ka) and dissociation constant (kd) and determined the affinity constant KD […].
# [7] = target: T2, human PD-1 expressed on the cell surface; test: Flow cytometry on CD3/CD28 stimulated human PBMCs, PE-labelled mouse anti-human Fc mAb, MFI in the PD1+ CD3+ T cell population
# Procedure: as §1
# [8] = target: T3, Recombinant hPD1-His (Sino Biologicals, …); test: ELISA on immobilised recombinant hPD1, DO 450 nm
# [9] = target: T3, Recombinant hPD1-His (Sino Biologicals, …); test: ELISA on immobilised recombinant hPD1, DO 450 nm; remark: listed apart in the source
# [10] = target: T3, Recombinant hPD1-His (Sino Biologicals, …); test: Biacore competition with PDL1 for PD1, relative response in % of no Ab
# [11] = target: T3, Recombinant hPD1-His (Sino Biologicals, …); test: Biacore SPR, antibody captured on anti-human Fc, hPD1-His as analyte
# Procedure: The affinity measurement was performed by Biacore in PP21 platform (Inserm U1194, Université de Montpellier). Anti-human Fc antibody (GEHealthcare) was immobilized at 25 μg/ml in acetate buffer pH5.
Binder,IC50 [1] [µg/mL],EC50 [2] [pM],"ED50 of NFAT luciferase luminescence, Promega PD-1/PD-L1 bioassay [3] [µg/mL]",EC50 [4] [µg/mL],"IC50 of PD-1/pSHP-1 signaling, DiscoverX PathHunter Jurkat PD-1 (SHP1) assay, chemiluminescence [5] [ng/mL]",Kd [6] [pM],koff [6] [s⁻¹],kon [6] [M⁻¹ s⁻¹],EC50 (read off the curve) [7] [µg/mL],EC50 (read off the curve) [8] [µg/mL],EC50 (read off the curve) [9] [µg/mL],binding result [10],Kd [11] [pM],koff [11] [s⁻¹],kon [11] [M⁻¹ s⁻¹]
B1,0.196,278,0.41,0.0127,12.7,1340,0.000429,319000,–,–,–,–,–,–,–
B2,0.156,223,0.89,0.0166,16.6,1250,0.000554,441000,–,–,–,–,–,–,–
B3,0.201,133,0.54,0.0164,16.9,840,0.000343,405000,–,–,–,–,–,–,–
B4,–,–,–,–,–,–,–,–,~0.3,–,–,–,–,–,–
B5,0.178,1540,1.16,0.0147,14.8,1280,0.000352,274000,–,–,–,–,–,–,–
B6,0.196,402,0.46,0.0192,19.2,1140,0.000507,443000,~0.3,~0.009,~0.01,–,–,–,–
B7,–,–,–,–,–,–,–,–,–,–,–,binds,–,–,–
B8,0.205,187,0.69,0.0114,11.4,750,0.000262,351000,–,–,–,–,4100,~0.00133,324000
B9,0.194,241,0.9,0.0134,13.4,1050,0.000432,410000,–,–,–,–,–,–,–
B10,0.175,118,0.4,0.0115,11.6,930,0.000427,458000,–,–,–,–,–,–,–
